Source: paper doi:10.1101/2023.02.02.526371 (bioRxiv, 2023)

Target: T1, recombinant PIF3-GST (Arabidopsis thaliana, UniProt O80536 1-524)
T1 sequence (looked up): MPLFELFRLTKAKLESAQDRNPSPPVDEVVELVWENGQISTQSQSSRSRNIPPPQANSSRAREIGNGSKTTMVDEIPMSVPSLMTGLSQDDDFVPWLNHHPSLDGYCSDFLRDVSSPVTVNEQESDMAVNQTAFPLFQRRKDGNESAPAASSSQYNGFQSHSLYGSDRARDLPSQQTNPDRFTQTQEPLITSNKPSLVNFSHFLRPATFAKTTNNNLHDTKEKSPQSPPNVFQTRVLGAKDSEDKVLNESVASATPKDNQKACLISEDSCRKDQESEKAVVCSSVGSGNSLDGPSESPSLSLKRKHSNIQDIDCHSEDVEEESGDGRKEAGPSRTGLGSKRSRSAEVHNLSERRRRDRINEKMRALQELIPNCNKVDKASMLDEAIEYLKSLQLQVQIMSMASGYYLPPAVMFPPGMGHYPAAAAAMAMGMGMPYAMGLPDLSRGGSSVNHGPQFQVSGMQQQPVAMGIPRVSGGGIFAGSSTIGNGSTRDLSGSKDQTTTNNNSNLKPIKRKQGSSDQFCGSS
Experiment: pull-down

B1: His-tagged kinase domain of FER (518-816 amino acids, FER-KD) (domain or fragment)
chain: not shown
B1: binds.
